Laboratory results as given in US20160177324A1, “NOVEL PROTEIN AND GENE RELATED TO FLAVONOID O-METHYLTRANSFERASE (FOMT) AND THEIR USES THEREFORE” (INSTITUTE OF BOTANY, THE CHINESE ACADEMY OF SCIENCES, priority 2013, published 2016).

What was measured:
[1] = Biochemical characterization of PsFOMT reaction conditions (pH, temperature, divalent cations, Mg2+ concentration)
Procedure: For quantitative analyses, reaction conditions were optimized. The pH dependence of FOMTs activity was assessed in the pH range of 4.5 to 8.5 using MES (4.5-6.5) and Tris-HCl (7.5-8.5) buffer. The effect of divalent cations on enzyme activity was estimated by adding to the reaction mixture containing 10 mM MgCl2, CaCl2, ZnCl2, MnCl2, CoCl2 or EDTA. The proper concentration of metal ion was assessed by testing different concentrations of MgCl2 (0.1, 0.2, 0.5, 1.0, 5.0 and 10 mM). Incubation temperature was set at 25, 30, 35 and 40° C. to detect the effect on enzyme activity.
The reaction system was according to Hugueney et al. with some modification (Hugueney, P., et al., A novel cation-dependent O-methyltransferase involved in anthocyanin methylation in grapevine. Plant Physiology, 2009. 150(4): p. 2057-2070.). Purified recombinant FOMT (2 μg) was assayed in a final volume of 200 μL containing 200 μM SAM, 1 mM MgCl2, 14 mM β-mercaptoethanol, 100 mM Tris, pH 7.5, and 20 μM flavonoid substrates. Incubation was performed at 35° C. and stopped with 200 μL methanol containing 2% formic acid. For enzyme kinetic studies, purified FOMT was incubated based on the above condition with the exception that a range of substrate concentrations from 5 to 200 μM were used for Km determination. Reaction product was analyzed by a Dionex HPLC system (Sunnyvale, Calif.), equipped with a P680 HPLC pump, an UltiMate 3000 autosampler, a TCC-100 thermostated column compartment and a Dionex PDA100 photodiode array detector. The analytical column was C18 column of ODS 80Ts QA (150 mm×4.6 mm, 5 μm i.d., Tosoh, Tokyo) protected with a C18 guard cartridge (Shanghai ANPEL Scientific Instrument, Shanghai). The following solvent and gradient were used: A, 10% aqueous formic acid; B, methanol; constant gradient from 10 to 36% B within 15 min and back to 10% B in 3 min; the flow rate was 0.8 mL min^−1; Column temperature was maintained at 35° C.; 20 μL of analyte was injected. Chromatograms were obtained at 525 nm for anthocyanins and 350 nm for other flavonoids, and photodiode array spectra were recorded from 200 to 800 nm. Km and Vmax values were calculated from Lineweaver-Burk plots.

[2] = system: Nicotiana tabacum cv.Nc89; test: Flavonoid O-methyltransferase activity in transgenic tobacco; format: in vivo
Description: The full length genes were introduced with a BamHl site and an XhoI site on 5′- and 3′-end by PCR with primers SEQ No. 5 & 6. The double digested fragment of interest and eukaryotic expression vector pBI121 with BamHl site and an XhoI were ligated. Then the appropriate constructs were introduced into Agrobacterium strain EHA105 by electroporation.
Leaf of Nicotiana tabacum cv.Nc89 plant (Donated by Professor Silan Dai, Beijing Forestry University) was disinfected by 75% ethanol for 30 s, followed by 2% sodium hypochlorite for 3 minutes, and then washed with sterile water for three times. The leaf was cut into squares (25 mm^2) A single colony of Agrobacterium strain EHA105 with pBI121-FOMT construct was used to inoculate with 2 mL of YEB medium (per liter: 5 g of beef extract, 1 g of yeast extract, 5 g of sucrose, and 0.5 g of MgSO4.7H2O), supplemented with 50 mg mL^−1 kanamycin and 25 mg mL^−1 Rifampicin. The culture was incubated at 28° C. until OD600 0.6-0.8, and the bacteria were pelleted by centrifugation at 5000 rpm for 5 minutes. The cells were washed by MS liquid medium and resuspended pellets with appropriate volume of MS liquid. The tobacco leaf squares were dipped into the bacteria solution for 8 minutes and cultivated on MS media containing 2.0 mg L^−1 6-benzylaminopurine (6-BA), 0.2 mg L^−1 1-naphthylacetic acid (NAA), and 500 mg L^−1 ceflomine. The explants were transferred to fresh selected medium after two weeks. When the regenerating plantlets grow to 2 cm, move them to MS media containing 0.2 mg L^−1 NAA to induce root. After four weeks, the transgenic tobacco plantlets were transferred to pots and kept in the greenhouse till flowering. The positive transgenic lines were selected by PCR, and transgenic plantlets with empty plasmid were used as control. The anthocyanins in transgenic petals were detected with an HPLC system.
Appropriate amount of sample (petal, fruits) was powdered with mortars and pestles and extracted for the first time with 2 mL 2% (v/v) formic acid methanol solution shaken in a QL-861 vortex (Kylinbell Lab Instruments, Jiangsu, China), sonicated in KQ-500DE ultrasonic cleaner (Ultrasonic instruments, Jiangsu Kunshan, China) at 20° C. for 20 min, centrifuged in SIGMA 3K30 (SIGMA centrifugers, Germany) (12000 rpm, 10 min), and the supernatant was collected. Additional 2 mL and 1 mL extraction solution was supplemented to the residue, and repeated aforesaid operation for the second and third times. All extract was pooled and filtrated through 0.22 μm reinforced nylon membrane filters (Shanghai ANPEL, Shanghai, China) before the HPLC-DAD and HPLC-ESI-MS^n analyses. Three replicates were performed for each sample. […]
HPLC-ESI-MS^n analysis was carried with an Agilent-1100 HPLC system equipped with a UV detector coupled to a LC-MSD Trap VL ion-trap mass spectrometer via an ESI source (Agilent Technologies, Palo Alto, Calif.). […] The MS conditions were listed as follow: negative-ion (NI) mode; capillary voltage of 3.5 kV; a nebulization pressure of 241.3 kPa; and a gas (N2) temperature of 350° C. with flow rate of 6.0 L min^−1 Capillary offset voltage was 77.2 V. MS spectra were recorded over the range from m/z 50-1000.

B1: PsFOMT: flavonoid O-methyltransferase from tree peony Paeonia suffruticosa cv. 'Gunpohden', SEQ ID NO: 3; recombinant MBP fusion protein (protein, listed as Paeonia suffruticosa)
chain: MAESDRKGILKSEALLKYILETSVYPREHEQLKQLRQATVDKYKYWSVMNVPADEGQFLSMLLKIMNAKKTIEVGVFTGYSLLTAALALPTDAKITAIDPDGEAYETGLPFIKKAGVEHKINYIQADAMSVLDDLVTNGKEEGSFDFAFVDADKENYAKYHEPLMKLVKIGGIIGYDNTLWFGSVALSDGDEMKEFQEKGRRIFREFNTFLAADPRIELAHISIGDGLALCRRLY
modifications: MBP fusion
notes: recombinant MBP fusion protein
**Q.** Which “activity in the presence of EDTA” value ([1]; 10 mM EDTA) does the source give for B1 here?
**A.** could not been detected

**Q.** What about the “influence of different divalent cations on activity” value ([1]; 10 mM MgCl2, CaCl2, ZnCl2, MnCl2, CoCl2) of the same molecule?
**A.** most active in the presence of Mg^2+

**Q.** And the “effect of increasing incubation temperature on activity” value ([1]; 25-40° C.)?
**A.** accelerated

**Q.** What about the “optimal concentration of Mg^2+” value ([1]; MgCl2 0.1-10 mM tested) of the same molecule?
**A.** 1.0 mM

**Q.** What about the pH optimum ([1]; on the substrate of Qu3R) of the same molecule?
**A.** 7.5

**Q.** And the “pH dependence range of activity in vitro” value ([1]; substrate Qu3R, pH 4.5 to 8.5 tested)?
**A.** 6.5-8.5

**Q.** And the “flower color compared with control lines” value ([2]; transgenic tobacco flowers)?
**A.** tend to purplish

**Q.** What about the “methyltransferase function in tobacco petal (new anthocyanin Pn3R detected)” value ([2]; transgenic tobacco petals vs empty vector) of the same molecule?
**A.** performed as a methyltransferase

**Q.** What about the “content of peonidin 3-O-rutinoside (Pn3R) in total anthocyanin (TA)” value ([2]; transgenic tobacco petals, 35S:: lines) of the same molecule?
**A.** much higher
